This is an account of results in publication PMC4091835 (Nature structural & molecular biology, 2014).

The chains are these.
B1: Human Eps8 (natural protein, UniProt Q12929 1-822, looked up)
chain: MNGHISNHPSSFGMYPSQMNGYGSSPTFSQTDREHGSKTSAKALYEQRKNYARDSVSSVSDISQYRVEHLTTFVLDRKDAMITVDDGIRKLKLLDAKGKVWTQDMILQVDDRAVSLIDLESKNELENFPLNTIQHCQAVMHSCSYDSVLALVCKEPTQNKPDLHLFQCDEVKANLISEDIESAISDSKGGKQKRRPDALRMISNADPSIPPPPRAPAPAPPGTVTQVDVRSRVAAWSAWAADQGDFEKPRQYHEQEETPEMMAARIDRDVQILNHILDDIEFFITKLQKAAEAFSELSKRKKNKKGKRKGPGEGVLTLRAKPPPPDEFLDCFQKFKHGFNLLAKLKSHIQNPSAADLVHFLFTPLNMVVQATGGPELASSVLSPLLNKDTIDFLNYTVNGDERQLWMSLGGTWMKARAEWPKEQFIPPYVPRFRNGWEPPMLNFMGATMEQDLYQLAESVANVAEHQRKQEIKRLSTEHSSVSEYHPADGYAFSSNIYTRGSHLDQGEAAVAFKPTSNRHIDRNYEPLKTQPKKYAKSKYDFVARNNSELSVLKDDILEILDDRKQWWKVRNASGDSGFVPNNILDIVRPPESGLGRADPPYTHTIQKQRMEYGPRPADTPPAPSPPPTPAPVPVPLPPSTPAPVPVSKVPANITRQNSSSSDSGGSIVRDSQRHKQLPVDRRKSQMEEVQDELIHRLTIGRSAAQKKFHVPRQNVPVINITYDSTPEDVKTWLQSKGFNPVTVNSLGVLNGAQLFSLNKDELRTVCPEGARVYSQITVQKAALEDSSGSSELQEIMRRRQEKISAAASDSGVESFDEGSSH
B2: CRIB–PR domain of IRSp53 (residues 260–291), synthetic peptide (peptide, UniProt Q9UQB8-4 260-291, looked up)
peptide: Ac-ASKSNLVISDPIPGAKPLPVPPELAPFVGRMS-NH2
B3: Isolated SH3 domain of IRSp53 (domain or fragment)
chain: NGRMRVKAIFSHAAGDNSTLLSFKEGDLITLLVPEARDGWHYGESEKTKMRGWFPFSYTRVLDS
B4: Human Cdc42 residues 1–178, constitutively active mutant G12V (domain or fragment)
chain: not shown
B5: Full-length human IRSp53 (natural protein, UniProt Q9UQB8-4 1-521, looked up)
chain: MSLSRSEEMHRLTENVYKTIMEQFNPSLRNFIAMGKNYEKALAGVTYAAKGYFDALVKMGELASESQGSKELGDVLFQMAEVHRQIQNQLEEMLKSFHNELLTQLEQKVELDSRYLSAALKKYQTEQRSKGDALDKCQAELKKLRKKSQGSKNPQKYSDKELQYIDAISNKQGELENYVSDGYKTALTEERRRFCFLVEKQCAVAKNSAAYHSKGKELLAQKLPLWQQACADPSKIPERAVQLMQQVASNGATLPSALSASKSNLVISDPIPGAKPLPVPPELAPFVGRMSAQESTPIMNGVTGPDGEDYSPWADRKAAQPKSLSPPQSQSKLSDSYSNTLPVRKSVTPKNSYATTENKTLPRSSSMAAGLERNGRMRVKAIFSHAAGDNSTLLSFKEGDLITLLVPEARDGWHYGESEKTKMRGWFPFSYTRVLDSDGSDRLHMSLQQGKSSSTGNLLDKDDLAIPPPDYGAASRAFPAQTASGFKQRPYSVAVPAFSQGLDDYGARSMSSGSGTLVSTV

For data set [1], the target named is B5. Nature of the data set: SEC + other: glycerol gradient sedimentation.
Data set [2] deals with B4. Nature of the data set: ITC.
Data set [3] concerns the target B2. Nature of the data set: ITC.
Data set [4] has as its target B5. Briefly: ITC. A general note: Isothermal titration calorimetry measures the heat released or taken up as one component is titrated into another.
In data set [5] the target is B2. Briefly: ITC.
Data set [6] deals with the molecule itself. Nature of the data set: SEC + other: glycerol gradient sedimentation.

As for B1, in data set [1], the stoichiometry N (in general, the number of molecules, sites or subunits per partner or assembly) was 1 Eps8 per IRSp53 (2:2). Regarding B2, in data set [2], binding was characterised by a dissociation constant (Kd) of 5 µM.

On to B3, for which the Kd (in general, the constant that tells how readily two partners part at equilibrium) in data set [3] is 114 µM. As for B4, in data set [4], the affinity, expressed as Kd, was 16.1 µM; the “fold reduction of the enthalpy of binding against CRIB–PR” value came out at 3 fold; the “stoichiometry N” value is 1 Cdc42 per CRIB–PR. For the same molecule, the “stoichiometry N” value in data set [5] was 1 Cdc42 per CRIB–PR. On to B5, for which the “stoichiometry N” value in data set [6] stood at 2.
